Tested on: Ras

mouse neurofibromin expressed from full-length mNf1 cDNA with exon 28 deleted
Ras assays (GTP-Ras levels, p-ERK/ERK ratio, ELK1 transcriptional activity): exon 28 deletion performed the worst in Ras assays as it retained the least function
